# Reference: US12577303B2
# Like-named read-outs stand apart in the source and are kept apart here.
# Experiments:
# [1] = molecular target: human Sirpα-V1 recombinant protein (human) (UniProt P78324); test: ELISA
# [2] = molecular target: human Sirpα-V1 recombinant protein (human) (UniProt P78324); test: ELISA; remark: listed apart in the source
# [3] = molecular target: human Sirpα-V1 on CHO-K1 hSirpα+ cells (human) (UniProt P78324); test: cell ELISA on CHO-K1 hSirpα+ cells
# [4] = molecular target: human T cells (expressing Sirpγ) (human) (UniProt Q9P1W8); test: flow cytometry on human PBMC T cells
# [5] = molecular target: human Sirpα-V1 recombinant protein (human) (UniProt P78324); test: ELISA; remark: listed apart in the source
# [6] = molecular target: human Sirpβ-his (human) (UniProt O00241); test: ELISA
# [7] = molecular target: human Sirpα-V1-hFc (human) (UniProt P78324); test: blocking ELISA: hSirpα (dimer) to CD47
# [8] = molecular target: human Sirpα-V1-his (human) (UniProt P78324); test: blocking ELISA: hSirpα to CD47 (dimer)
# [9] = molecular target: human Sirpα-V1-hFc (human) (UniProt P78324); test: blocking ELISA: hSirpα (dimer) to hCD47
# [10] = molecular target: human Sirpα-V1 on CHO-K1 hSirpα+ cells (human) (UniProt P78324); test: cell ELISA on hSirpα-v1+ cell strain
# [11] = molecular target: human T cells (expressing Sirpγ) (human) (UniProt Q9P1W8); test: flow cytometry on human PBMC T cells, 10 µg/mL
# [12] = molecular target: human Sirpα-V1-his (human) (UniProt P78324); test: blocking ELISA: hSirpα to hCD47 (dimer)
substance,measurement,setting,value
"positive control antibody 1 (Ref1, OSE-172)",EC50,[1],0.17 nM
same,EC50,[2],0.072 nM
same,EC50,[3],0.37 nM
same,T-cell binding activity (% binding),[4],1.79%
same,EC50,[5],0.057 nM
same,EC50,[6],0.126 nM
same,IC50,[7],3.74 nM
same,IC50,[8],4.16 nM
same,IC50,[9],4.55 nM
same,EC50,[10],0.084 nM
same,proportion of cells with fluorescence intensity above 10^3,[11],0.49%
same,IC50,[12],4.58 nM
